Literature values as cited in article PMC6175838.

Assays:
[1] = target: claudin-3 (Homo sapiens) (UniProt O15551); assay: given as Ka
[2] = target: claudin-4 (Homo sapiens) (UniProt O14493); assay: given as Ka
Chain of UniProt O14493 (O14493 whole entry): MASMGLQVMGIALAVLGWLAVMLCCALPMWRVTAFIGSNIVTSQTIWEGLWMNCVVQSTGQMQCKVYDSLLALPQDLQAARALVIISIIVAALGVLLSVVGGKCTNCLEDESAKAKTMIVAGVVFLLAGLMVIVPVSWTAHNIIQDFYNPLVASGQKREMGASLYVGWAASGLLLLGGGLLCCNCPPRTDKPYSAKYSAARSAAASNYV

Chain of UniProt O15551 (O15551 whole entry): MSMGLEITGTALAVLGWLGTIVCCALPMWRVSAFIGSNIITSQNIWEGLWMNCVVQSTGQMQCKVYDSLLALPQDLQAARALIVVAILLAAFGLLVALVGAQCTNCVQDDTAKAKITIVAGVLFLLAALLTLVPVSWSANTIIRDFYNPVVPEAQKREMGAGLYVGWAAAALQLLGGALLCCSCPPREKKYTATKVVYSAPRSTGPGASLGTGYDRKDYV

C-CPE C-terminal domain (from UniProt P01558)
Kd [1]: 10 nM | Kd [2]: 10 nM
